# Results from article PMC4610412.
# Tests used:
# [1] = target: FFpSPR; test: NMR titration; conditions: phospho-S3 of peptide
# [2] = target: pCdc25C (Homo sapiens); test: NMR titration; conditions: phospho-T5 of peptide (pT48)
# [3] = target: trans-locked inhibitor; test: NMR titration; conditions: phospho-S3, trans-locked alkene isostere
# [4] = target: pCdc25C (Homo sapiens); test: ITC; conditions: phospho-T5 of peptide (pT48)
Kd [1],Kd [2],Kd [3],Kd [4],Binder
43 µM,6 µM,53 µM,,"ADEEKLPPGWEKRMSRSSGRVYYFNHITNASQWERPSGNSS [Pin1 (WW domain site, full-length Pin1) WW, Q13526]"
,,,13 µM,"ADEEKLPPGWEKRMSRSSGRVYYFNHITNASQWERPSGNSS [Pin1 WW domain (isolated) WW, Q13526]"
